# Experimental data published in patent publication US20050244864A1, “Development and use of fluorescent probes of unbound analytes” (priority 2004, published 2005).
# Positions count from the first letter of the chain named. Names may count otherwise.
# B1: L1P7 B11: acrylodan-labeled rI-FABP mutein: Y14 I, L38 I, L72 V, Y117 wt (protein, UniProt P02693 2-132, looked up, variant Y14I L38I L72V)
# Fatty acid-binding protein, …: AFDGTWKVDRNENIEKFMEKMGINVVKRKLGAHDNLKITITQEGNKFTVKESSNFRNIDVVFELGVDFAYSVADGTELTGTWTMEGNKLVGKFKRVDNGKELIAVREISGNELIQTYTYEGVEAKRIFKKE
# modifications: acrylodan label
# notes: acrylodan-labeled rI-FABP mutein: Y14 I, L38 I, L72 V, Y117 wt
# B2: L1P12 G10: acrylodan-labeled rI-FABP mutein: Y14 I, L38 wt, L72 wt, Y117 wt (protein, UniProt P02693 2-132, looked up, variant Y14I)
# Fatty acid-binding protein, …: B1 Fatty acid-binding protein, … with I38L, V72L
# modifications: acrylodan label
# B3: L1P3 D6: acrylodan-labeled rI-FABP mutein: Y14 L, L38 wt, L72 wt, Y117 wt (protein, UniProt P02693 2-132, looked up, variant Y14L)
# Fatty acid-binding protein, …: B1 Fatty acid-binding protein, … with I14L, I38L, V72L
# modifications: acrylodan label
# B4: L1P1 F7: acrylodan-labeled rI-FABP mutein: Y14 L, L38 M, L72 wt, Y117 F (protein, UniProt P02693 2-132, looked up, variant Y14L L38M Y117F)
# Fatty acid-binding protein, …: B1 Fatty acid-binding protein, … with I14L, I38M, V72L, Y117F
# modifications: acrylodan label
# notes: acrylodan-labeled rI-FABP mutein: Y14 L, L38 M, L72 wt, Y117 F
# B5: L1P14 A9: acrylodan-labeled rI-FABP mutein: Y14 L, L38 wt, L72 G, Y117 I (protein, UniProt P02693 2-132, looked up, variant Y14L L72G Y117I)
# Fatty acid-binding protein, …: B1 Fatty acid-binding protein, … with I14L, I38L, V72G, Y117I
# modifications: acrylodan label
# notes: acrylodan-labeled rI-FABP mutein: Y14 L, L38 wt, L72 G, Y117 I
# B6: L1P11 F12: acrylodan-labeled rI-FABP mutein: Y14 L, L38 I, L72 wt, Y117 wt (protein, UniProt P02693 2-132, looked up, variant Y14L L38I)
# Fatty acid-binding protein, …: B1 Fatty acid-binding protein, … with I14L, V72L
# modifications: acrylodan label
# B7: L1P17 A8: acrylodan-labeled rI-FABP mutein: Y14 wt, L38 M, L72 G, Y117 F (protein, UniProt P02693 2-132, looked up, variant L38M L72G Y117F)
# Fatty acid-binding protein, …: B1 Fatty acid-binding protein, … with I14Y, I38M, V72G, Y117F
# modifications: acrylodan label
# notes: acrylodan-labeled rI-FABP mutein: Y14 wt, L38 M, L72 G, Y117 F
# B8: L1P9 G10: acrylodan-labeled rI-FABP mutein: Y14 wt, L38 I, L72 G, Y117 wt (protein, UniProt P02693 2-132, looked up, variant L38I L72G)
# Fatty acid-binding protein, …: B1 Fatty acid-binding protein, … with I14Y, V72G
# modifications: acrylodan label
# B9: L1P16 G10: acrylodan-labeled rI-FABP mutein: Y14 W, L38 wt, L72 M, Y117 A (protein, UniProt P02693 2-132, looked up, variant Y14W L72M Y117A)
# Fatty acid-binding protein, …: B1 Fatty acid-binding protein, … with I14W, I38L, V72M, Y117A
# modifications: acrylodan label
# notes: acrylodan-labeled rI-FABP mutein: Y14 W, L38 wt, L72 M, Y117 A
# B10: L1P5 A10: acrylodan-labeled rI-FABP mutein: Y14 wt, L38 wt, L72 wt, Y117 A (protein, UniProt P02693 2-132, looked up, variant Y117A)
# Fatty acid-binding protein, …: B1 Fatty acid-binding protein, … with I14Y, I38L, V72L, Y117A
# modifications: acrylodan label
# notes: acrylodan-labeled rI-FABP mutein: Y14 wt, L38 wt, L72 wt, Y117 A
# B11: L1P8 D4: acrylodan-labeled rI-FABP mutein: Y14 M, L38 wt, L72 M, Y117 A (protein, UniProt P02693 2-132, looked up, variant Y14M L72M Y117A)
# Fatty acid-binding protein, …: B1 Fatty acid-binding protein, … with I14M, I38L, V72M, Y117A
# modifications: acrylodan label
# notes: acrylodan-labeled rI-FABP mutein: Y14 M, L38 wt, L72 M, Y117 A
# B12: L1P8 H2: acrylodan-labeled rI-FABP mutein: Y14 M, L38 M, L72 W, Y117 wt (protein, UniProt P02693 2-132, looked up, variant Y14M L38M L72W)
# Fatty acid-binding protein, …: B1 Fatty acid-binding protein, … with I14M, I38M, V72W
# modifications: acrylodan label
# notes: acrylodan-labeled rI-FABP mutein: Y14 M, L38 M, L72 W, Y117 wt
# B13: L1P7 H4: acrylodan-labeled rI-FABP mutein: Y14 I, L38 M, L72 W, Y117 wt (protein, UniProt P02693 2-132, looked up, variant Y14I L38M L72W)
# Fatty acid-binding protein, …: B1 Fatty acid-binding protein, … with I38M, V72W
# modifications: acrylodan label
# notes: acrylodan-labeled rI-FABP mutein: Y14 I, L38 M, L72 W, Y117 wt
# B14: L1P1 C3: acrylodan-labeled rI-FABP mutein: Y14 M, L38 wt, L72 W, Y117 wt (protein, UniProt P02693 2-132, looked up, variant Y14M L72W)
# Fatty acid-binding protein, …: B1 Fatty acid-binding protein, … with I14M, I38L, V72W
# modifications: acrylodan label
# B15: L1P17 A1: acrylodan-labeled rI-FABP mutein: Y14 I, L38 wt, L72 W, Y117 wt (protein, UniProt P02693 2-132, looked up, variant Y14I L72W)
# Fatty acid-binding protein, …: B1 Fatty acid-binding protein, … with I38L, V72W
# modifications: acrylodan label
# B16: L1P12 E11: acrylodan-labeled rI-FABP mutein: Y14 L, L38 wt, L72 W, Y117 wt (protein, UniProt P02693 2-132, looked up, variant Y14L L72W)
# Fatty acid-binding protein, …: B1 Fatty acid-binding protein, … with I14L, I38L, V72W
# modifications: acrylodan label
# B17: L2P1E6: acrylodan-labeled rI-FABP-L72A mutein: M18 L, G31 WT, F55 WT, A73 L (protein, UniProt P02693 2-132, looked up, variant M18L L72A A73L)
# Fatty acid-binding protein, …: B1 Fatty acid-binding protein, … with I14Y, M18L, I38L, V72A, A73L
# modifications: acrylodan label
# What was measured:
# Type in all cases: binding
# [1] = Probe fluorescence ratio response to arachidonate:BSA complex, relative to ADIFAB2 (ΔR/ΔRAD2); settings: fluorescence response (R-Ro) relative to ADIFAB2; arachidonate
# Protocol: (§1) The intensity ratio (“R” value) for a given probe is determined. The ratio is calculated using the following formula: R=Fλ1/Fλ2 wherein, Fλ1, is the measured fluorescence intensities (intensity of sample with probe present minus intensity of sample without probe present) at wavelength 1 and Fλ2 is the measured fluorescence intensities (intensity of sample with probe present minus intensity of sample without probe present) at wavelength 2. Then, for a given probe, ΔR, the difference in R value between the measurement in the presence of the analyte and in the absence of the analyte, is calculated as follows: ΔR=R+analyte−R0 The ΔR value for a given probe is then compared to a reference probe, for example, ADIFAB or ADIFAB2, by ΔR/ΔRreference. This value is an indication of how dissimilar the new probe (derived by mutation of the template) is to the reference. By this method, probes with new and useful characteristics may be identified. Measurements of fluorescence intensities are obtained using standard techniques.
# (§2) Mutant probes were screened in 96-well plates by fluorescence response to five fatty acids: arachidonate, linolenate, linoleate, oleate, and palmitate. Each fatty acid was prepared as a complex with BSA by slow addition of 50 mM stocks of fatty acid sodium salts at pH 11 to 600 μM BSA in HEPES buffer. During the formation of complexes, 15 μL aliquots were periodically measured with the reference probe, ADIFAB2, to determine the ΔR value upon excitation at 375 nm and fluorescence emission at 550 and 457 nm using a Fluorolog-3 spectrofluorometer (Jobin Yvon) (Richieri et al, Molecular and Cellular Biochemistry (1999), 192:87-94 & Richieri et al, J. Biol. Chem. (1996), 271:31068-31074). Complexes were prepared such that the final ΔR was approximately 0.4 which correspond to [FFAu] ranging from 100 to 1000 nM depending on FFA type. These complexes buffer or clamp the FFAu levels at fixed values and therefore ensure the accurate comparison of different probes with the same FFAu concentrations. In contrast, addition of FFAu alone (i.e. uncomplexed FFA) introduces considerable uncertainty in comparing different probes because the FFAu level will be affected by binding to the dispensing device, the walls of the multi-well plates and to the probe itself. Thus, the terms “buffer” and “clamp” as used in this particular context herein are taken to mean the ability of a carrier macromolecule to complex with an unbound metabolite so that the unbound metabolite is presented accurately for measurement purposes and is prevented from non-specific binding such as binding to laboratory apparatus.
# (§3) Plates were prepared and read in two stages. First, complexes and fatty acid free BSA were diluted to 6 μM BSA in HEPES and added to the 96-well plate at 300 μL per well. A MultiProbe II HT (Perkin Elmer) (an automated liquid handling system) was used to facilitate plate preparation for high throughput screening, but any automated or manual pipetting system will suffice. The background fluorescence was then measured at the same wavelengths as used for ADIFAB2 using a Fluorolog-3 spectrofluorometer with an external Micromax 384 fluorescence plate reader (Jobin Yvon). In the second stage, 30 μL aliquots of the mutant probes were added to multiple wells of the plate, one for each fatty acid and one with fatty acid free BSA only, and the fluorescence intensity at each wavelength was again measured on the plate reader. After subtraction of the background fluorescence, the fluorescence ratio of each well was calculated.
# (§4) The fluorescence response was quantitatively compared to ADIFAB2 to search for changes in magnitude and fatty acid profile; for example the response to one fatty acid relative to another. For each probe the ratio differences (AR) between wells with each fatty acid compared to a corresponding well with fatty acid free BSA were recorded. […]
# [2] = Probe fluorescence ratio response to oleate:BSA complex, relative to ADIFAB2 (ΔR/ΔRAD2); settings: fluorescence response (R-Ro) relative to ADIFAB2; oleate
# Protocol: as §1, §2, §3, §4
# [3] = Probe fluorescence ratio response to linolenate:BSA complex, relative to ADIFAB2 (ΔR/ΔRAD2); settings: fluorescence response (R-Ro) relative to ADIFAB2; linolenate
# Protocol: as §1, §2, §3, §4
# [4] = Probe fluorescence ratio response to palmitate:BSA complex, relative to ADIFAB2 (ΔR/ΔRAD2); settings: fluorescence response (R-Ro) relative to ADIFAB2; palmitate
# Protocol: as §1, §2, §3, §4
# [5] = Probe fluorescence ratio response to linoleate:BSA complex, relative to ADIFAB2 (ΔR/ΔRAD2); settings: fluorescence response (R-Ro) relative to ADIFAB2; linoleate
# Protocol: as §1, §2, §3, §4
# [6] = Probe fluorescence ratio response to palmitoleate:BSA complex, relative to ADIFAB2 (ΔR/ΔRAD2); settings: fluorescence response (R-Ro) relative to ADIFAB2
# [7] = Probe fluorescence ratio response to stearate:BSA complex, relative to ADIFAB2 (ΔR/ΔRAD2); settings: fluorescence response (R-Ro) relative to ADIFAB2
Molecule,ΔR/ΔRAD2 AA [1],ΔR/ΔRAD2 OA [2],ΔR/ΔRAD2 LNA [3],ΔR/ΔRAD2 PA [4],ΔR/ΔRAD2 LA [5],ΔR/ΔRAD2 POA [6],ΔR/ΔRAD2 SA [7]
B1,0.7,0.4,0.9,0.8,0.9,–,–
B2,0.8,0.5,1.0,0.8,0.9,–,–
B3,0.9,0.5,0.9,0.5,0.8,–,–
B4,0.9,0.5,1.0,0.5,0.9,–,–
B5,0.8,0.4,0.8,0.2,0.8,–,–
B6,1.0,0.7,1.2,0.7,1.1,–,–
B7,1.3,0.7,0.7,0.4,0.8,–,–
B8,1.0,0.9,0.7,0.4,0.8,–,–
B9,0.9,0.7,1.3,0.8,1.1,–,–
B10,1.5,1.1,0.7,0.4,1.2,–,–
B11,1.6,1.1,2.0,0.9,2.0,–,–
B12,−1.3,−1.7,−1.3,−0.6,−1.5,–,–
B13,−1.0,−1.4,−1.1,−0.6,−1.3,–,–
B14,−0.9,−1.3,−1.0,−0.4,−1.1,–,–
B15,−0.8,−1.2,−0.9,−0.4,−1.0,–,–
B16,−0.5,−1.0,−0.7,−0.1,−0.7,–,–
B17,0.4,0.1,0.1,0.0,0.1,0.1,0.2
